Patent publication US20260209357A1 (CSL INNOVATION, published 2026)
Residue numbers refer to the chain shown, from its start. Names may count otherwise.

B1: Vyvgart (other)
chain: DKTHTCPPCPAPELLGGPSVFLFPPKPKDTLYITREPEVTCVVVDVSHEDPEVKFNWYVDGVEVHNAKTKPREEQYNSTYRVVSVLTVLHQDWLNGKEYKCKVSNKALPAPIEKTISKAKGQPREPQVYTLPPSRDELTKNQVSLTCLVKGFYPSDIAVEWESNGQPENNYKTTPPVLDSDGSFFLYSKLTVDKSRWQQGNVFSCSVMHEALKFHYTQKSLSLSPGK
notes: also called Efgartigimod; commercially available Vyvgart product
B2: huG1FcYPY (other)
chain: EPKSCDKTHTCPPCPAPELLGGPSVFLFPPKPKDTLYISRTPEVTCVVVDVSHEDPEVKFNWYVDGVEVHNAKTKPREEQYNSTYRVVSVLTPLHQDWLNGKEYKCKVSNKALPAPIEKTISKAKGQPREPQVYTLPPSRDELTKNQVSLTCLVKGFYPSDIAVEWESNGQPENNYKTTPPVLDSDGSFFLYSKLTVDKSRWQQGNVFSCSVMHEALHYHYTQKSLSLSPGK
notes: Fc fragment alone; also called G1FcYPY homodimer
B3: huG1FcYTEKF (other)
chain: B2 chain with S39T, T41E, P93V, H218K, Y219F
notes: Human IgG1 Fc with M252Y, S254T, T256E, H433K, N434F, modelled on efgartigimod with five more N-terminal residues (EPKSC); Fc dimer is to be expected; also called benchmark molecule
B4: human FcγRI (CD64) (receptor, UniProt P12314 16-292, looked up)
chain: QVDTTKAVITLQPPWVSVFQEETVTLHCEVLHLPGSSSTQWFLNGTATQTSTPSYRITSASVNDSGEYRCQRGLSGRSDPIQLEIHRGWLLLQVSSRVFTEGEPLALRCHAWKDKLVYNVLYYRNGKAFKFFHWNSNLTILKTNISHNGTYHCSGMGKHRYTSAGISVTVKELFPAPVLNASVTSPLLEGNLVTLSCETKLLLQRPGLQLYFSFYMGSKTLRGRNTSSEYQILTARREDSGLYWCEAATEDGNVLKRSPELELQVLGLQLPTPVWFH
notes: extracellular domain; also called FcyRI (CD64)

What was measured:
[1] = target: T1, biotinylated human FcRn/β2m (human, UniProt P55899 24-297; P61769 21-119, biotinylated (Biotin-NHS amine chemistry or BirA biotin ligase; site not stated)); assay: SPR, surface-bound huFcRn/b2m, pH 7.3
T1 construct: The soluble human FcRn/β2m after biotinylation, tethered on streptavidin or neutravidin chips; also called surface-captured biotinylated human FcRn complexed with β2m
T1 sequence (P55899 24-297 limits assumed, chain 1 of 2): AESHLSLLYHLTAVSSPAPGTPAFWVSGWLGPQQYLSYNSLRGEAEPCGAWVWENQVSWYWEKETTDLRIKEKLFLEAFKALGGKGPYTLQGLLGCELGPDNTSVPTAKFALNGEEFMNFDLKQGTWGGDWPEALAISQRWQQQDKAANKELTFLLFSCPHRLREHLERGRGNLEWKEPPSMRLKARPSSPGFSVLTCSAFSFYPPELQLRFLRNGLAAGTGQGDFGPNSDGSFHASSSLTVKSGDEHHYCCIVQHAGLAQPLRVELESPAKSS
T1 sequence (P61769 21-119 limits assumed, chain 2 of 2): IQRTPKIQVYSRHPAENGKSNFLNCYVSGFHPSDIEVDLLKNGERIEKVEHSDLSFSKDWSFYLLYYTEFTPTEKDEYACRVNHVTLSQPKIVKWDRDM

[2] = target: T2, soluble recombinant human FcRn/β2m (human, UniProt P55899 24-297; P61769 21-119); assay: SPR, ligand on surface, soluble HuFcRn/b2m as analyte; pH not printed with the table (paragraph 351 speaks of pH 6.0)
T2 construct: About 42 kDa; also called HuFcRn/b2m; huFcRn/b2m
T2 sequence (P55899 24-297 limits assumed, chain 1 of 2): as the sequence (P55899 24-297 limits assumed, chain 1 of 2) above
T2 sequence (P61769 21-119 limits assumed, chain 2 of 2): as the sequence (P61769 21-119 limits assumed, chain 2 of 2) above

[3] = target: T1, biotinylated human FcRn/β2m; assay: SPR, biotinylated FcRn/β2m on streptavidin or neutravidin chip, antagonist as analyte (avidity conditions), pH 7.3
[4] = target: T1, biotinylated human FcRn/β2m; assay: SPR, biotinylated FcRn/β2m on streptavidin or neutravidin chip, antagonist as analyte (avidity conditions), pH 7.3; column head printed ka (1/s)
[5] = target: T3, Human IgG1 Fc (huG1Fc) (human, UniProt P0DOX5 218-449 = IgG part); assay: SPR, ligand directly immobilised, soluble Fcγ receptor as analyte, pH 7.3
T3 construct: Wild-type Fc control, directly immobilised on the chip; also called G1Fc homodimer

Row | Binder | Kd [3] | kon [3] | koff [4] | other results
1 | B1 |  |  |  | Kd [1]: 2.3 nM
2 | B2 | 1.1 nM | 492000 M⁻¹ s⁻¹ | 0.000532 s⁻¹ | Kd [2]: 16.9 nM; koff [2]: 0.00525 s⁻¹; kon [2]: 311000 M⁻¹ s⁻¹
3 | B3 | 2.4 nM | 970000 M⁻¹ s⁻¹ | 0.00236 s⁻¹ | 
4 | B4 |  |  |  | Kd [5]: 0.086 nM
